T1: TNFR1 (Homo sapiens, UniProt P19438)
T1 chain: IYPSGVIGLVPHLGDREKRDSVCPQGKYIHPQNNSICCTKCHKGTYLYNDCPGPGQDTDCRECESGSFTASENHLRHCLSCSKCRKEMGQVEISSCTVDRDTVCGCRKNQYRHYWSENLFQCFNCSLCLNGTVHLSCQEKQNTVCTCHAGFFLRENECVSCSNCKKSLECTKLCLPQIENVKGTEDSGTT

B1: D40V (designed binder)
chain: MTLQELLREEALRRAEAEAFRYALELLAEKFPEQKEYLLVLAEEIESQIRSLSGVDVEDVRKFLDKEWAWVKELLAEHPAELAEVEAARAARLAELRAEVEAKVAA
B2: A28I (designed binder)
chain: MTLQELLREEALRRAEAEAFRYALELLIEKFPEQKEYLLDLAEEIESQIRSLSGVDVEDVRKFLDKEWAWVKELLAEHPAELAEVEAARAARLAELRAEVEAKVAA
B3: E58H (designed binder)
chain: MTLQELLREEALRRAEAEAFRYALELLAEKFPEQKEYLLDLAEEIESQIRSLSGVDVHDVRKFLDKEWAWVKELLAEHPAELAEVEAARAARLAELRAEVEAKVAA
B4: A98P (designed binder)
chain: MTLQELLREEALRRAEAEAFRYALELLAEKFPEQKEYLLDLAEEIESQIRSLSGVDVEDVRKFLDKEWAWVKELLAEHPAELAEVEAARAARLAELRPEVEAKVAA
B5: D56N (designed binder)
chain: MTLQELLREEALRRAEAEAFRYALELLAEKFPEQKEYLLDLAEEIESQIRSLSGVNVEDVRKFLDKEWAWVKELLAEHPAELAEVEAARAARLAELRAEVEAKVAA
B6: R8W (designed binder)
chain: MTLQELLWEEALRRAEAEAFRYALELLAEKFPEQKEYLLDLAEEIESQIRSLSGVDVEDVRKFLDKEWAWVKELLAEHPAELAEVEAARAARLAELRAEVEAKVAA
B7: I49S (designed binder)
chain: MTLQELLREEALRRAEAEAFRYALELLAEKFPEQKEYLLDLAEEIESQSRSLSGVDVEDVRKFLDKEWAWVKELLAEHPAELAEVEAARAARLAELRAEVEAKVAA
B8: A17Q (designed binder)
chain: MTLQELLREEALRRAEQEAFRYALELLAEKFPEQKEYLLDLAEEIESQIRSLSGVDVEDVRKFLDKEWAWVKELLAEHPAELAEVEAARAARLAELRAEVEAKVAA
B9: E44P (designed binder)
chain: MTLQELLREEALRRAEAEAFRYALELLAEKFPEQKEYLLDLAEPIESQIRSLSGVDVEDVRKFLDKEWAWVKELLAEHPAELAEVEAARAARLAELRAEVEAKVAA
B10: R21V (designed binder)
chain: MTLQELLREEALRRAEAEAFVYALELLAEKFPEQKEYLLDLAEEIESQIRSLSGVDVEDVRKFLDKEWAWVKELLAEHPAELAEVEAARAARLAELRAEVEAKVAA
B11: D59S (designed binder)
chain: MTLQELLREEALRRAEAEAFRYALELLAEKFPEQKEYLLDLAEEIESQIRSLSGVDVESVRKFLDKEWAWVKELLAEHPAELAEVEAARAARLAELRAEVEAKVAA
B12: E18P (designed binder)
chain: MTLQELLREEALRRAEAPAFRYALELLAEKFPEQKEYLLDLAEEIESQIRSLSGVDVEDVRKFLDKEWAWVKELLAEHPAELAEVEAARAARLAELRAEVEAKVAA
B13: L12F (designed binder)
chain: MTLQELLREEAFRRAEAEAFRYALELLAEKFPEQKEYLLDLAEEIESQIRSLSGVDVEDVRKFLDKEWAWVKELLAEHPAELAEVEAARAARLAELRAEVEAKVAA
B14: E16L (designed binder)
chain: MTLQELLREEALRRALAEAFRYALELLAEKFPEQKEYLLDLAEEIESQIRSLSGVDVEDVRKFLDKEWAWVKELLAEHPAELAEVEAARAARLAELRAEVEAKVAA
B15: E36Q (designed binder)
chain: MTLQELLREEALRRAEAEAFRYALELLAEKFPEQKQYLLDLAEEIESQIRSLSGVDVEDVRKFLDKEWAWVKELLAEHPAELAEVEAARAARLAELRAEVEAKVAA
B16: V100R (designed binder)
chain: MTLQELLREEALRRAEAEAFRYALELLAEKFPEQKEYLLDLAEEIESQIRSLSGVDVEDVRKFLDKEWAWVKELLAEHPAELAEVEAARAARLAELRAEREAKVAA
B17: A15T (designed binder)
chain: MTLQELLREEALRRTEAEAFRYALELLAEKFPEQKEYLLDLAEEIESQIRSLSGVDVEDVRKFLDKEWAWVKELLAEHPAELAEVEAARAARLAELRAEVEAKVAA
B18: A23H (designed binder)
chain: MTLQELLREEALRRAEAEAFRYHLELLAEKFPEQKEYLLDLAEEIESQIRSLSGVDVEDVRKFLDKEWAWVKELLAEHPAELAEVEAARAARLAELRAEVEAKVAA
B19: E95S (designed binder)
chain: MTLQELLREEALRRAEAEAFRYALELLAEKFPEQKEYLLDLAEEIESQIRSLSGVDVEDVRKFLDKEWAWVKELLAEHPAELAEVEAARAARLASLRAEVEAKVAA
B20: R21K (designed binder)
chain: MTLQELLREEALRRAEAEAFKYALELLAEKFPEQKEYLLDLAEEIESQIRSLSGVDVEDVRKFLDKEWAWVKELLAEHPAELAEVEAARAARLAELRAEVEAKVAA
B21: E29V (designed binder)
chain: MTLQELLREEALRRAEAEAFRYALELLAVKFPEQKEYLLDLAEEIESQIRSLSGVDVEDVRKFLDKEWAWVKELLAEHPAELAEVEAARAARLAELRAEVEAKVAA
B22: L75C (designed binder)
chain: MTLQELLREEALRRAEAEAFRYALELLAEKFPEQKEYLLDLAEEIESQIRSLSGVDVEDVRKFLDKEWAWVKELCAEHPAELAEVEAARAARLAELRAEVEAKVAA
B23: E95W (designed binder)
chain: MTLQELLREEALRRAEAEAFRYALELLAEKFPEQKEYLLDLAEEIESQIRSLSGVDVEDVRKFLDKEWAWVKELLAEHPAELAEVEAARAARLAWLRAEVEAKVAA
B24: G54D (designed binder)
chain: MTLQELLREEALRRAEAEAFRYALELLAEKFPEQKEYLLDLAEEIESQIRSLSDVDVEDVRKFLDKEWAWVKELLAEHPAELAEVEAARAARLAELRAEVEAKVAA
B25: D65S (designed binder)
chain: MTLQELLREEALRRAEAEAFRYALELLAEKFPEQKEYLLDLAEEIESQIRSLSGVDVEDVRKFLSKEWAWVKELLAEHPAELAEVEAARAARLAELRAEVEAKVAA
B26: A98V (designed binder)
chain: MTLQELLREEALRRAEAEAFRYALELLAEKFPEQKEYLLDLAEEIESQIRSLSGVDVEDVRKFLDKEWAWVKELLAEHPAELAEVEAARAARLAELRVEVEAKVAA
B27: S51N (designed binder)
chain: MTLQELLREEALRRAEAEAFRYALELLAEKFPEQKEYLLDLAEEIESQIRNLSGVDVEDVRKFLDKEWAWVKELLAEHPAELAEVEAARAARLAELRAEVEAKVAA
B28: L26T (designed binder)
chain: MTLQELLREEALRRAEAEAFRYALETLAEKFPEQKEYLLDLAEEIESQIRSLSGVDVEDVRKFLDKEWAWVKELLAEHPAELAEVEAARAARLAELRAEVEAKVAA
B29: L6S (designed binder)
chain: MTLQESLREEALRRAEAEAFRYALELLAEKFPEQKEYLLDLAEEIESQIRSLSGVDVEDVRKFLDKEWAWVKELLAEHPAELAEVEAARAARLAELRAEVEAKVAA
B30: A42L (designed binder)
chain: MTLQELLREEALRRAEAEAFRYALELLAEKFPEQKEYLLDLLEEIESQIRSLSGVDVEDVRKFLDKEWAWVKELLAEHPAELAEVEAARAARLAELRAEVEAKVAA
B31: L39K (designed binder)
chain: MTLQELLREEALRRAEAEAFRYALELLAEKFPEQKEYLKDLAEEIESQIRSLSGVDVEDVRKFLDKEWAWVKELLAEHPAELAEVEAARAARLAELRAEVEAKVAA
B32: A91R (designed binder)
chain: MTLQELLREEALRRAEAEAFRYALELLAEKFPEQKEYLLDLAEEIESQIRSLSGVDVEDVRKFLDKEWAWVKELLAEHPAELAEVEAARARRLAELRAEVEAKVAA
B33: E81S (designed binder)
chain: MTLQELLREEALRRAEAEAFRYALELLAEKFPEQKEYLLDLAEEIESQIRSLSGVDVEDVRKFLDKEWAWVKELLAEHPASLAEVEAARAARLAELRAEVEAKVAA
B34: I45Q (designed binder)
chain: MTLQELLREEALRRAEAEAFRYALELLAEKFPEQKEYLLDLAEEQESQIRSLSGVDVEDVRKFLDKEWAWVKELLAEHPAELAEVEAARAARLAELRAEVEAKVAA

Target: T1, TNFR1
Experiment: yeast display SC50

Row | Binder | apparent Kd (screen) [pM]
1 | B1 | 5310
2 | B2 | 7780
3 | B3 | 593
4 | B4 | 539
5 | B5 | 653
6 | B6 | 539
7 | B7 | 539
8 | B8 | 277
9 | B9 | 1160
10 | B10 | 718
11 | B11 | 539
12 | B12 | 1050
13 | B13 | 593
14 | B14 | 593
15 | B15 | 490
16 | B16 | 718
17 | B17 | 490

Row | Binder | apparent Kd (screen) [pM]
18 | B18 | 1270
19 | B19 | 539
20 | B20 | 593
21 | B21 | 539
22 | B22 | 653
23 | B23 | 446
24 | B24 | 13800
25 | B25 | 790
26 | B26 | 490
27 | B27 | 1690
28 | B28 | 490
29 | B29 | 4830
30 | B30 | 2050
31 | B31 | 1160
32 | B32 | 446
33 | B33 | 490
34 | B34 | 15200

Source: article PMC12416549 (2024)
